{"source": "paper doi:10.1101/2022.12.06.519343", "key": {"[1]": {"target": "T1, GFP-His6::sExu531 (Drosophila melanogaster)", "T1 chain": "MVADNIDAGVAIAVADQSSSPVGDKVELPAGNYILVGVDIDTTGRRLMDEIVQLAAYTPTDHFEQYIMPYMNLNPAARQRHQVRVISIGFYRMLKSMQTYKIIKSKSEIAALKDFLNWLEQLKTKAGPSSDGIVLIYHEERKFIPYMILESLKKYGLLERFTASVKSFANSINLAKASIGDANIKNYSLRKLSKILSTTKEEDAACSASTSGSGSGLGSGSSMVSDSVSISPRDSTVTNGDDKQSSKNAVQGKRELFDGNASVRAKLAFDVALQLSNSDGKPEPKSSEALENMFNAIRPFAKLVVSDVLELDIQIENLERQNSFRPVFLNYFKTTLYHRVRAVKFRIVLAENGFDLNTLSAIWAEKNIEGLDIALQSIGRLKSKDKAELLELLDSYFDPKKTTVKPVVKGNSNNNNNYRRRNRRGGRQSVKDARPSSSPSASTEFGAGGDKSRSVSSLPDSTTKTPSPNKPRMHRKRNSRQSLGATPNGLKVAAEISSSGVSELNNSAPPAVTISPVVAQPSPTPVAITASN", "experiment": "SEC", "conditions": "remark: other sources report otherwise"}, "[2]": {"target": "T1, GFP-His6::sExu531 (Drosophila …)", "experiment": "SEC", "conditions": "remark: other sources report otherwise"}}, "data": [{"binder": "GFP-His6::sExu531 (natural protein) MVADNIDAGVAIAVADQSSSPVGDKVELPAGNYILVGVDIDTTGRRLMDEIVQLAAYTPTDHFEQYIMPYMNLNPAARQRHQVRVISIGFYRMLKSMQTYKIIKSKSEIAALKDFLNWLEQLKTKAGPSSDGIVLIYHEERKFIPYMILESLKKYGLLERFTASVKSFANSINLAKASIGDANIKNYSLRKLSKILSTTKEEDAACSASTSGSGSGLGSGSSMVSDSVSISPRDSTVTNGDDKQSSKNAVQGKRELFDGNASVRAKLAFDVALQLSNSDGKPEPKSSEALENMFNAIRPFAKLVVSDVLELDIQIENLERQNSFRPVFLNYFKTTLYHRVRAVKFRIVLAENGFDLNTLSAIWAEKNIEGLDIALQSIGRLKSKDKAELLELLDSYFDPKKTTVKPVVKGNSNNNNNYRRRNRRGGRQSVKDARPSSSPSASTEFGAGGDKSRSVSSLPDSTTKTPSPNKPRMHRKRNSRQSLGATPNGLKVAAEISSSGVSELNNSAPPAVTISPVVAQPSPTPVAITASN", "values": [{"measurement": "stoichiometry N", "setting": "[1]", "value": "> 3"}, {"measurement": "stoichiometry N", "setting": "[2]", "value": 3}]}]}
